From paper PMC3458533 come the findings set out here.

Some results are limits rather than exact numbers.

Holding throughout (assay): filter binding
The target in one data set is T1, R.MwoI S310K (Methanothermobacter wolfeii (DSMZ), UniProt O59646 1-363, S310K).
T1 sequence: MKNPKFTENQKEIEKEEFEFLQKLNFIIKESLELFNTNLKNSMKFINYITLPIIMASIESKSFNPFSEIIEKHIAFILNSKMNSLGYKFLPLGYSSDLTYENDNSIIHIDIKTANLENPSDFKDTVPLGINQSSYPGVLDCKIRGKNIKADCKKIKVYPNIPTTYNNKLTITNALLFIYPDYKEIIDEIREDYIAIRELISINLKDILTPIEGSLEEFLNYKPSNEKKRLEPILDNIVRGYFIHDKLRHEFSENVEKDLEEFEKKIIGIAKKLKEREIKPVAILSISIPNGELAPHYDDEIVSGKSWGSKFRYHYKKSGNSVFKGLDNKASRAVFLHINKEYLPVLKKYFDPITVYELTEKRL

Another data set has as its target T2, R.MwoI S310D (Methanothermobacter wolfeii (DSMZ), UniProt O59646 1-363, S310D).
T2 sequence: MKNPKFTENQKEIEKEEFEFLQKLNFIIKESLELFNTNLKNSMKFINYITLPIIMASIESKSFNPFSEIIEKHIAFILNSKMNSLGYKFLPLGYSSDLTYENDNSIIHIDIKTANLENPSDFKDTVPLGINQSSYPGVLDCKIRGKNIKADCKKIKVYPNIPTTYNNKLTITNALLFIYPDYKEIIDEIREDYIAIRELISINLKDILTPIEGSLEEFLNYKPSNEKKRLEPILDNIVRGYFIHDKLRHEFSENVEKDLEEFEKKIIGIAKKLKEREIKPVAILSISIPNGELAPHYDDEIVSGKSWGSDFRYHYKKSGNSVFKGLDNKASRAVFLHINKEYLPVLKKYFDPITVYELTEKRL

The next data set deals with T3, R.MwoI T125R (Methanothermobacter wolfeii (DSMZ), UniProt O59646 1-363, T125R).
T3 sequence: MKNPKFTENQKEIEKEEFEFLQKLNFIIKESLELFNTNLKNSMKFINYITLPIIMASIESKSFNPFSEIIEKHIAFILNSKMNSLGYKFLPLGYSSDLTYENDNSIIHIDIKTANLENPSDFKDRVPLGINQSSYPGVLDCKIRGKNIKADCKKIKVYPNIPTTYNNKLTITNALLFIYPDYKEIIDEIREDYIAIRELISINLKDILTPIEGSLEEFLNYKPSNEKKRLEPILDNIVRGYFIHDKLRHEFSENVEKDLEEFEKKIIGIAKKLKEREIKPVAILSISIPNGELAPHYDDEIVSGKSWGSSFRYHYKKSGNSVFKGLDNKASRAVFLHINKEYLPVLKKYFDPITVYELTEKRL

The target in another data set is T4, R.MwoI S310A (Methanothermobacter wolfeii (DSMZ), UniProt O59646 1-363, S310A).
T4 sequence: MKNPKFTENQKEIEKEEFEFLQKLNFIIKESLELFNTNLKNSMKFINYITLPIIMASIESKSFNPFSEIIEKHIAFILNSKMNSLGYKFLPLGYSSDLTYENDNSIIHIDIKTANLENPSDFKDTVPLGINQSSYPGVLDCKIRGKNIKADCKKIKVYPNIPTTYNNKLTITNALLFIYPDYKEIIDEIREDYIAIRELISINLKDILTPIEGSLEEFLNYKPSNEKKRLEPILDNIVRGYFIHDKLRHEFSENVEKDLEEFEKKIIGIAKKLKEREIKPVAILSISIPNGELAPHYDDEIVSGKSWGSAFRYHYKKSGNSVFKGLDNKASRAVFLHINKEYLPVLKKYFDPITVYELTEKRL

In a further data set the target is T5, R.MwoI A330R (Methanothermobacter wolfeii (DSMZ), UniProt O59646 1-363, A330R).
T5 sequence: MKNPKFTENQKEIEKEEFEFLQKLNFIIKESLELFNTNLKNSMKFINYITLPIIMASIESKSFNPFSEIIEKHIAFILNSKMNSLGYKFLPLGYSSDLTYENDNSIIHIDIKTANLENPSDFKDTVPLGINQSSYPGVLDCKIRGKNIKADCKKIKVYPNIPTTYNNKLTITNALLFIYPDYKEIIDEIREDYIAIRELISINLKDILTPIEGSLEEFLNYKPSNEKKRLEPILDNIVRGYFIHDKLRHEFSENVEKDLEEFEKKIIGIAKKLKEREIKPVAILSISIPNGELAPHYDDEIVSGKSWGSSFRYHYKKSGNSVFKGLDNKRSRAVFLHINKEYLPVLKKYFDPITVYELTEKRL

In the next data set the target is T6, R.MwoI E68A (Methanothermobacter wolfeii (DSMZ), UniProt O59646 1-363, E68A).
T6 sequence: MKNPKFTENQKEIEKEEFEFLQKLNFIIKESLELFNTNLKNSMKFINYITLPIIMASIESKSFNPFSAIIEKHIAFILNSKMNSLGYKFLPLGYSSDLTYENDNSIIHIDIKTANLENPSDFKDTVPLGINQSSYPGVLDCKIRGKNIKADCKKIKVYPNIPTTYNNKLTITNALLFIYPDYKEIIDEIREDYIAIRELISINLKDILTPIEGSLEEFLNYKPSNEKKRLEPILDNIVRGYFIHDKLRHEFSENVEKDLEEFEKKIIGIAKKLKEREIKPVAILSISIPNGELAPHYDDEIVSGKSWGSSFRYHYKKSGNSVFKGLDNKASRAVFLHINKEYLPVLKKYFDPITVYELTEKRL

In another data set the target is T7, R.MwoI K112A (Methanothermobacter wolfeii (DSMZ), UniProt O59646 1-363, K112A).
T7 sequence: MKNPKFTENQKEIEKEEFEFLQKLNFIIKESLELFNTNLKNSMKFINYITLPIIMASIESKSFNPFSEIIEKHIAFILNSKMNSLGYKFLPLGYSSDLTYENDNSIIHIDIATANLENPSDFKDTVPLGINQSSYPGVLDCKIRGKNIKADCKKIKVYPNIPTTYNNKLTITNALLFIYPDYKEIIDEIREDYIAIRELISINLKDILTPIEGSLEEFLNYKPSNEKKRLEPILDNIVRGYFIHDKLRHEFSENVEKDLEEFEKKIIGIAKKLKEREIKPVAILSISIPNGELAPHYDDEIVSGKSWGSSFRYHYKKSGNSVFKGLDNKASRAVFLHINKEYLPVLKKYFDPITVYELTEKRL

The target of the next data set is T8, R.MwoI D110A (Methanothermobacter wolfeii (DSMZ), UniProt O59646 1-363, D110A).
T8 sequence: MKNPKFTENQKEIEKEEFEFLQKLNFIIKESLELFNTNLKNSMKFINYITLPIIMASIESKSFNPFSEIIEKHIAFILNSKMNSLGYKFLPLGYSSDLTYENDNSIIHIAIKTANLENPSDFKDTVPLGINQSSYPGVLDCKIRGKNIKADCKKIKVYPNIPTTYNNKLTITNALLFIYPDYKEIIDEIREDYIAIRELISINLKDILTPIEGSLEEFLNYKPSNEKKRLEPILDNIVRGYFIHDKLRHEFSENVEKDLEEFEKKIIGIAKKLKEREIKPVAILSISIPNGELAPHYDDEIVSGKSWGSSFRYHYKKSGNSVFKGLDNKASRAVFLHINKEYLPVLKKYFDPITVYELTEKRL

B1: C/G (GCCN5GGC) (dsDNA)
DNA 1: GACAGTGCCATCTCGGCGACAGT
DNA 2: ACTGTCGCCGAGATGGCACTGTC
Take B1: the binding result in the data set with R.MwoI S310K is “binds”.

B2: A/T (GCAN5TGC) (dsDNA)
DNA 1: GACAGTGCAATCTCTGCGACAGT
DNA 2: ACTGTCGCAGAGATTGCACTGTC
Regarding B2, in the data set with R.MwoI S310D, the binding result was “binds”.

B3: G/C (GCGN5CGC) (dsDNA)
DNA 1: GACAGTGCGATCTCCGCGACAGT
DNA 2: ACTGTCGCGGAGATCGCACTGTC
As for B3, in the data set with R.MwoI S310D, the binding result is reported as “binds”.

B4: MwoI target oligonucleotide (dsDNA)
DNA 1: CGGCTGTAGTCGCAC
DNA 2: GTGCGACTACAGCCG
Take B4: the binding signal was 42 % of wt with R.MwoI T125R; 53 % of wt with R.MwoI S310A; > 350 % of wt in the data set with R.MwoI A330R; > 350 % of wt with R.MwoI E68A; 114 % of wt in the data set with R.MwoI K112A; 25 % of wt in the data set with R.MwoI D110A.
